Laboratory results from patent US20100015637A1 (AbbVie / Abbott, published 2010).
Each block holds one binder with its values, some of them ahead of it.

Columns and labels:
[1] = biological target: T1, human PlGF-1 (as used in Example 13; source not specified) (human) (UniProt P49763); experiment: … PlGF-1 assay; added sFlt-1 93 pM; 3.6 pM PlGF-1 without sFlt-1
T1 sequence: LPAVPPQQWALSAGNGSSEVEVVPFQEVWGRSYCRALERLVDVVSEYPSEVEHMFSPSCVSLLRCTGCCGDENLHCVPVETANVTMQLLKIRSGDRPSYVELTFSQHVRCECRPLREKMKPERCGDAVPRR

[2] = biological target: T1, human PlGF-1 (as used in Example 13; source not specified) (human); experiment: … PlGF-1 assay; added sFlt-1 93 pM; 6.8 pM PlGF-1 without sFlt-1
[3] = biological target: T1, human PlGF-1 (as used in Example 13; source not specified) (human); experiment: … PlGF-1 assay; added sFlt-1 186 pM; 3.6 pM PlGF-1 without sFlt-1
[4] = biological target: T1, human PlGF-1 (as used in Example 13; source not specified) (human); experiment: … PlGF-1 assay; added sFlt-1 186 pM; 6.8 pM PlGF-1 without sFlt-1
[5] = biological target: T1, human PlGF-1 (as used in Example 13; source not specified) (human); experiment: … PlGF-1 assay; added sFlt-1 389 pM; 3.6 pM PlGF-1 without sFlt-1
[6] = biological target: T1, human PlGF-1 (as used in Example 13; source not specified) (human); experiment: … PlGF-1 assay; added sFlt-1 389 pM; 6.8 pM PlGF-1 without sFlt-1
[7] = biological target: T1, human PlGF-1 (as used in Example 13; source not specified) (human); experiment: … PlGF-1 assay; added sFlt-1 788 pM; 3.6 pM PlGF-1 without sFlt-1
[8] = biological target: T1, human PlGF-1 (as used in Example 13; source not specified) (human); experiment: … PlGF-1 assay; added sFlt-1 788 pM; 6.8 pM PlGF-1 without sFlt-1
[9] = biological target: T1, human PlGF-1 (as used in Example 13; source not specified) (human); experiment: … PlGF-1 assay; added sFlt-1 93 pM; 13.3 pM PlGF-1 without sFlt-1
[10] = biological target: T1, human PlGF-1 (as used in Example 13; source not specified) (human); experiment: … PlGF-1 assay; added sFlt-1 93 pM; 27.1 pM PlGF-1 without sFlt-1
[11] = biological target: T1, human PlGF-1 (as used in Example 13; source not specified) (human); experiment: … PlGF-1 assay; added sFlt-1 93 pM; 40.5 pM PlGF-1 without sFlt-1
[12] = biological target: T1, human PlGF-1 (as used in Example 13; source not specified) (human); experiment: … PlGF-1 assay; added sFlt-1 186 pM; 13.3 pM PlGF-1 without sFlt-1
[13] = biological target: T1, human PlGF-1 (as used in Example 13; source not specified) (human); experiment: … PlGF-1 assay; added sFlt-1 186 pM; 27.1 pM PlGF-1 without sFlt-1
[14] = biological target: T1, human PlGF-1 (as used in Example 13; source not specified) (human); experiment: … PlGF-1 assay; added sFlt-1 186 pM; 40.5 pM PlGF-1 without sFlt-1
[15] = biological target: T1, human PlGF-1 (as used in Example 13; source not specified) (human); experiment: … PlGF-1 assay; added sFlt-1 389 pM; 13.3 pM PlGF-1 without sFlt-1
[16] = biological target: T1, human PlGF-1 (as used in Example 13; source not specified) (human); experiment: … PlGF-1 assay; added sFlt-1 389 pM; 27.1 pM PlGF-1 without sFlt-1
[17] = biological target: T1, human PlGF-1 (as used in Example 13; source not specified) (human); experiment: … PlGF-1 assay; added sFlt-1 389 pM; 40.5 pM PlGF-1 without sFlt-1
[18] = biological target: T1, human PlGF-1 (as used in Example 13; source not specified) (human); experiment: … PlGF-1 assay; added sFlt-1 788 pM; 13.3 pM PlGF-1 without sFlt-1
[19] = biological target: T1, human PlGF-1 (as used in Example 13; source not specified) (human); experiment: … PlGF-1 assay; added sFlt-1 788 pM; 27.1 pM PlGF-1 without sFlt-1
[20] = biological target: T1, human PlGF-1 (as used in Example 13; source not specified) (human); experiment: … PlGF-1 assay; added sFlt-1 788 pM; 40.5 pM PlGF-1 without sFlt-1
[21] = biological target: T1, human PlGF-1 (as used in Example 13; source not specified) (human); experiment: … PlGF-1 assay; added sFlt-1 1,181 pM; 3.6 pM PlGF-1 without sFlt-1
[22] = biological target: T1, human PlGF-1 (as used in Example 13; source not specified) (human); experiment: … PlGF-1 assay; added sFlt-1 1,181 pM; 6.8 pM PlGF-1 without sFlt-1
[23] = biological target: T1, human PlGF-1 (as used in Example 13; source not specified) (human); experiment: … PlGF-1 assay; added sFlt-1 1,181 pM; 13.3 pM PlGF-1 without sFlt-1
[24] = biological target: T1, human PlGF-1 (as used in Example 13; source not specified) (human); experiment: … PlGF-1 assay; added sFlt-1 1,181 pM; 27.1 pM PlGF-1 without sFlt-1
[25] = biological target: T1, human PlGF-1 (as used in Example 13; source not specified) (human); experiment: … PlGF-1 assay; added sFlt-1 1,181 pM; 40.5 pM PlGF-1 without sFlt-1
[26] = biological target: T1, human PlGF-1 (as used in Example 13; source not specified) (human); experiment: … PlGF-1 assay after 16 h incubation of PlGF-1 with sFlt-1 (data not shown)
[27] = biological target: T1, human PlGF-1 (as used in Example 13; source not specified) (human); experiment: … PlGF-1 assay after 16 h incubation of PlGF-1 with sFlt-1 up to 12 nM (data not shown)
[28] = biological target: recombinant human PlGF-1 (comprising amino acids 1-131) expressed in E. coli (R&D Systems) (human) (UniProt P49763); experiment: EIA of 24 well cultures, antibody captured on anti-mouse IgG Fc, biotin labeled human PlGF-1
[29] = biological target: recombinant human PlGF-1 (comprising amino acids 1-131) expressed in E. coli (R&D Systems) (human) (UniProt P49763); experiment: EIA of clone supernatants, antibody captured on anti-mouse IgG Fc, biotin labeled human PlGF-1
[30] = biological target: recombinant human PlGF-1 (comprising amino acids 1-131) expressed in E. coli (R&D Systems) (human) (UniProt P49763); experiment: EIA, supernatant antibody captured on anti-mouse IgG Fc, biotin labeled human PlGF-1 at 1500 pg/mL

Measured Human PlGF-1 [1]: 1.5 pM
percent change in measured PlGF-1 vs. no sFlt-1 [1]: -58%
Measured Human PlGF-1 [2]: 3.1 pM
percentage of inhibition [2]: -55%
Measured Human PlGF-1 [3]: 1.2 pM
percent change in measured PlGF-1 [3]: -65%
Measured Human PlGF-1 [4]: 2.4 pM
percent change in measured PlGF-1 vs. no sFlt-1 [4]: -65%
Measured Human PlGF-1 [5]: 1.2 pM
percent change in measured PlGF-1 versus without sFlt-1 [5]: -67%
Measured Human PlGF-1 [6]: 2 pM
percent change in measured PlGF-1 [6]: -70%
Measured Human PlGF-1 [7]: 1.2 pM
percent change in measured PlGF-1 versus no sFlt-1 [7]: -66%
Measured Human PlGF-1 [8]: 1.9 pM
percent change in measured PlGF-1 [8]: -72%
Measured Human PlGF-1 [9]: 6.7 pM
percent change in measured PlGF-1 [9]: -49%
Measured Human PlGF-1 [10]: 15.6 pM
percent change in measured PlGF-1 versus no sFlt-1 [10]: -42%
Measured Human PlGF-1 [11]: 25.9 pM
percent change in measured PlGF-1 [11]: -36%
Measured Human PlGF-1 [12]: 4.9 pM
percent change in measured PlGF-1 [12]: -63%
Measured Human PlGF-1 [13]: 10.6 pM
percent change in measured PlGF-1 vs. no sFlt-1 [13]: -61%
Measured Human PlGF-1 [14]: 17.8 pM
percent change in measured PlGF-1 [14]: -56%
Measured Human PlGF-1 [15]: 3.8 pM
percent change in measured PlGF-1 vs. no sFlt-1 [15]: -72%
Measured Human PlGF-1 [16]: 7.5 pM
percent change in measured PlGF-1 vs. no sFlt-1 [16]: -72%
Measured Human PlGF-1 [17]: 12.2 pM
percent change in measured PlGF-1 vs. no sFlt-1 [17]: -70%
Measured Human PlGF-1 [18]: 3.3 pM
percent change in measured PlGF-1 vs. no sFlt-1 [18]: -76%
Measured Human PlGF-1 [19]: 6.1 pM
percent change in measured PlGF-1 vs. without sFlt-1 [19]: -78%
Measured Human PlGF-1 [20]: 9.2 pM
percent change in measured PlGF-1 vs. without sFlt-1 [20]: -77%
Measured Human PlGF-1 [21]: 1.3 pM
percent change in measured PlGF-1 versus without sFlt-1 [21]: -64%
Measured Human PlGF-1 [22]: 1.9 pM
percent change in measured PlGF-1 vs. without sFlt-1 [22]: -72%
Measured Human PlGF-1 [23]: 3 pM
percent change in measured PlGF-1 [23]: -77%
Measured Human PlGF-1 [24]: 5.4 pM
percent change in measured PlGF-1 [24]: -80%
Measured Human PlGF-1 [25]: 7.8 pM
percent change in measured PlGF-1 versus no sFlt-1 [25]: -81%
molar excess of sFlt-1 for 90% maximum inhibition [26]: 40 fold
% inhibition of the human PlGF-1 assay [27]: 90%
B1: sFlt-1 (as used in Example 13; preparation not specified) (receptor, not shown: a dimerising Fc or GST; small tags and cut ends)
chain: SKLKDPELSLKGTQHIMQAGQTLHLQCRGEAAHKWSLPEMVSKESERLSITKSACGRNGKQFCSTLTLNTAQANHTGFYSCKYLAVPTSKKKETESAIYIFISDTGRPFVEMYSEIPEIIHMTEGRELVIPCRVTSPNITVTLKKFPLDTLIPDGKRIIWDSRKGFIISNATYKEIGLLTCEATVNGHLYKTNYLTHRQTNTIIDVQISTPRPVKLLRGHTLVLNCTATTPLNTRVQMTWSYPDEKNKRASVRRRIDQSNSHANIFYSVLTIDKMQNKDKGLYTCRVRSGPSFKSVNTSVHI
modifications: glycosylated; the chimera is dimerised through its Fc, if that preparation was the one used

EIA signal relative to background (fold over background) [28]: > 3
EIA signal relative to background (fold over background) [29]: > 3
EIA signal relative to background (fold over background) [30]: 3
B2: anti-human PlGF-1 monoclonal antibody from clone 1-255-189 (antibody, V domains shown)
VH: QVHLQQSGAELMKPGASVKISCKATGYTFSSYWIEWVKQRPGHGLEWIGEILPGSVSNNFNEKFKDKATLTADPSSNTAYIQVSSLTSEDSAVYYCARSTGFYYGGNYFDHWGQGTTLAVSS
VL: DVVMTQTPLSLPVSPGDQASISCRSSQSLVHSNGHTYLHWYLQKPGQSPKLLIYKVSNRFSGVPDRVSGSGSGTDFTLKISRVEAEDLGVYFCSQSTHVPPTFGGGTKLEIKR

EIA signal relative to background (fold over background) [28]: > 3
EIA signal relative to background (fold over background) [29]: > 3
EIA signal relative to background (fold over background) [30]: > 3
B3: anti-human PlGF-1 monoclonal antibody from clone 2-826-127 (antibody, V domains shown)
VH: QVQLKQSGPGLVQPSQSLSITCTVSGFSLTTYGIHWVRQSPGKGLEWLGVMWSGGDTDYDAAFISRLSISKDNSKSQVFFKMNSLQANDTGIYYCARYRFYGMDYWGQGTSVTVSS
VL: AIQMTQSSSSFSVSLGDRVTITCKASEDIYNRFAWYQQKPGNAPRLLISGAASLEAGVPSRFSGSGSGQDYTLSITSLQTEDVATYYCQQYWSTPWTFGGGTKLEIKR
